Data on 21 variants can be found in the RNAGym collection of RNA variant scans (doi:10.1073/pnas.2313332121).

B1: TPR t1 (parent)
chain: GACCAAUCUGCCCUCAGAGCUCGAGAACAUCUUCGGAUGCAGAGGAGGCAGGCUUCGGUGGCGCGAUAGCGCCAACGUCCUCAACCUCCAAUGCAUCCCACCACAUGAUGAUGCCUGAAGAGCCUUGGUUUUUUG

In the series the parent is B1. Nature of the series: polymerase ribozyme fitness, log enrichment relative to wild type (log ratio); higher = more active; in vitro selection for triplet polymerase activity. The essentials: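 Only genotypes with ≥10 input reads and ≥1 read per output were kept after Illumina sequencing of input and output libraries. These libraries were PCR-built, transcribed mutants of each subunit of a heterodimeric triplet polymerase ribozyme, each put through one triplicate in vitro selection round with frozen incubation at −7 °C, gel excision of extended constructs, streptavidin-bead capture and RT-PCR. Fitness is a logarithmic ratio of genotype enrichment to wild-type enrichment, from inverse-variance-weighted replicate averages, with the logarithm in base 2.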
As to GACCAAUCUGCCCUCAGAGCUCGAGAUCAUCUUCAGAUGCAGAGGAGGUAGGCUUCGGUGGCGCGAUAGCGCCAACGUCCUCAACCUACGAUGCAUCACACCACAUGAAGAUGCCUGAAGAGCCUUGGUUUUUUG [A27U G35A C49U C88A A90G C98A U109A], the “polymerase ribozyme fitness (log ratio)” value was -4.79.

Consider GACCAAUCUGCCCUCAGAGCUCGAGAUCAUCUUCGGAUGCAGAGGAGGCAGGCUUCGGUGGCUCGAUAGCGCCAACGUCCUCAACCUCCAAUGCAUCCCACCACAUGAUGAUGCCUGAAGAGCCUUGGUUUUUUG [A27U G63U], for which the “polymerase ribozyme fitness (log ratio)” value is -5.66.

In the case of GACCAAUCUGCCCUCAGAGCUCGAGAUCAUCUUCGGAUGCAGAGGAGGCAGGCUUCGGUGGCACGAUAGCGCCAACGUCCUCAACCUCCAAUGCAUCCCACCACAUGAUGAUGCCUGAAGAGCCUUGGUUUUUUG [A27U G63A], the “polymerase ribozyme fitness (log ratio)” value is -4.36.

Take GACCAAUCUGCCCUCAGAGCUCGAGAUCAUCUUCGGAUGCAGAGGAGGCAGGCUUCGGUGGCCCGAUAGCGCCAACGUCCUCAACCUCCAAUGCAUCCCACCACAUGAUGAUGCCUGAAGAGCCUUGGUUUUUUG [A27U G63C]: the “polymerase ribozyme fitness (log ratio)” value is -3.59.

Consider GACCAAUCUGCCCUCAGAGCUCGAGAUCAUCUUCGGAUGCAGAGGAGGCAGGCUUCGGUGCCGCGAUAGCGCCAACGUCCUCAACCUCCAAUGCAUUCCACCACAUGAUGAUGCCUGAAGAGCCUUGGUUAUUUG [A27U G61C C97U U131A], for which the “polymerase ribozyme fitness (log ratio)” value is -4.99.

GACCAAUCUGCCCUCAGAGCUCGAGAUCAUCUUCGGAUGCAGAGGAGGCAGGCUUCGGUGGCACGAUAUCGCCAACGUCCUCAACCUCCAAUGCAUCCCACCACAUGAUGAUGCCUGAAGAGCCUUGGUUCUUUG [A27U G63A G69U U131C]: the “polymerase ribozyme fitness (log ratio)” value was -4.16.

For GACCAAUCUGCCCUCAGAGCUCGAGAUCAUCUUCGGAUGCAGAGGAAGUAGGCUUCGGUGGCGCGAUAGCGCCAACGUCCUCAACCUCCAAUGCAACCCACCACAUGAUGAUGCCUGAUGAGCCUUGGUUUUUUG [A27U G47A C49U U96A A119U], the “polymerase ribozyme fitness (log ratio)” value was -5.56.

Consider GACCAAUCUGCCCUCAGAGCUCGAGAUCAUCUUCGGAUGCAGAGGAGGCAGGCUUCGGUGACGCGAUAGCGCCAACGUCCUCAACCGCCAAUGCAUCCCACCACAUGAUGAUGCCUGAAGAGCCUUGGUUUUUUG [A27U G61A U87G], for which the “polymerase ribozyme fitness (log ratio)” value was -2.42.

GACCAAUCUGCCCUCAGAGCUCGAGAUCAUCUUCGGAUGCAGAGGAGGCAGCCUUCGGUGGCGCGAUAGCGCCAACGUCCUCAACCUUCAAUGCAUCCCACCACAUGAUGAUGCCUGAAGAGCCUUGGUUUUUUG [A27U G52C C88U]: the “polymerase ribozyme fitness (log ratio)” value is -3.31.

Regarding GACCAAUCUGCCCUCAGAGCUCGAGAUCAUCUUCGGAUGCAGAGGAGGCAGGCCUCGGUGUCGCGAUAGCGCCAACGUCCUCAACCUCCAAUGCAUCCCACCACAUCACCAUGCCUGAAGAGCCUUGGUUUUUUG [A27U U54C G61U G107C U109C G110C], the “polymerase ribozyme fitness (log ratio)” value was -7.69.

With GACCAAUCUGCCCUCAGAGCUCGAGAUCAUCUUCGGAUGCAGAGGAGGCAGGCGUCGGUGGCGCGAUAGCGCCAACGUCCUCAACCUCCAAUGCAUCCCACCACAUGAUGAUGCCUGAAGAGUCUUGGUUUUUUG [A27U U54G C123U], the “polymerase ribozyme fitness (log ratio)” value was -1.23.

Consider GACCAAUCUGCCCUCAGAGCUCGAGAUCAUCUUCGAAUGCCGAGGAGGCAGGCUUAGGUGACGCGAUAGCGCCAACGUCCUCAACCUCCAAUGCAUCCCACCACAUGAUGAUGCCUGAAAAGCCUUGGUUUUUUG [A27U G36A A41C C56A G61A G120A], for which the “polymerase ribozyme fitness (log ratio)” value was -5.6.

For the variant GACCAAUCUGCCCUCAGAGCUCGAGAUCAUCUUCGGAUGCAGAGGAGGCAGGCUUCGGAGGCGCGAUAGCGCCAACGUCCUCAACCUCCAAUGCAUCCCACCACAUGAUGAUGCCUGAAGAGCCUUGGUUUUUUG [A27U U59A], the “polymerase ribozyme fitness (log ratio)” value was -3.1.

GACCAAUCUGCCCUCAGAGCUCGAGAUCAUCUUCGCAUGCAGAGGAGGCAGGCUUCGGUGGCGCGAUAGCGCCAACGUCCUCAACCUCCAAUGCAUCCCACCACAUGAUGAUGCCUGAAGAGCCUUGGUUUUUUU [A27U G36C G135U]: the “polymerase ribozyme fitness (log ratio)” value was -5.51.

Take GACCAAUCUGCCCUCAGAGCUCGAGAUCAUCUUCGGAUGCAGAGGAUGCAGGCUUCGGUGGCGCGAUAGCGCCAACGUCCUCAACUUCCAAUGCAUCCCACCACAUGAUCAUGCCUGAAGAGCCUUGGUUUUUUG [A27U G47U C86U G110C]: the “polymerase ribozyme fitness (log ratio)” value was -6.45.

For the variant GACCAAUCUGCCCUCAGAGCUCGAGAUCAUCUUCGGAUGCAGAGGAGGCAGGCUUCUGUGGCGCGAUAGCGCGAACGCCCUCAACCUCCAAUGCAACCCACCACAUGAUGUUGCCUGAAGAGCCUUGGUUUUUUG [A27U G57U C73G U78C U96A A111U], the “polymerase ribozyme fitness (log ratio)” value is -5.99.

Turning to GACCAAUCUGCCCUCAGAGCUCGAGAUCAUCUUCGGAUGCAGAGGAUGCAGGCUUCGGUGGCGCGAUAGCGCCAACGUCCUCAACCUCCAAUGCAUCCCACCACAUGAUGAUGCCUGAAGAGCGUUGGUUUUUUG [A27U G47U C124G], the “polymerase ribozyme fitness (log ratio)” value is -1.62.

In the case of GACCAAUCUGCCCUCAGAGCUCGAGAUCAUCUUCGGAUGCAGAGGAGGCAGGCUUCGGUGGCGCGAUAGCGCCAACGUCCUCAACCUCCAAUGCAUCCCACCACAUGAUGAUGCCUUAAGAGCCUUGGUUUUUUG [A27U G117U], the “polymerase ribozyme fitness (log ratio)” value is -4.76.

On to GACCAAUCUGCCCUCAGAGCUCGAGAUCAUCUUCGGAUGCAGAGGAGGCAGGCUUCGGUGGCGCGAUAGCGCCAACGUCCUCAACCUCCAAUGCAUCCCACCACAUGAUGAUGCCUGAAGAGCAUUGGUUUUUUG [A27U C124A], for which the “polymerase ribozyme fitness (log ratio)” value is -0.764.

Regarding GACCAAUCUGCCCUCAGAGCUCGAGAUCACCUUCGGAUGCAGAGGAGGCAGGCUUCGGUGGCGCGAUAGCGCCAAAGUCCUCAACCUCCAAUGCAUCCGACAACUUGAUGAUGCUUGAAGAGCCUUGGUUUUUUG [A27U U30C C76A C99G C102A A105U C115U], the “polymerase ribozyme fitness (log ratio)” value is -6.7.

In the case of GACCAAUCUGCCCUCAGAGCUCGAGAUCAUCUUCGGAUGCAGAGGAGGCAGGCUUCGGUCGCGCGAUAGCGCCAACGUCCUCAACCUCCAAUGCAUCCCACCACAUGAUGAUGCCUGAAGAGCCUUGGUUUUUUG [A27U G60C], the “polymerase ribozyme fitness (log ratio)” value is -3.62.
